Tests used:
Assay in all cases: SPR (BIAcore T200), crude scFv captured, mixed complexes flowed over
[1] = target: group 1: ZNF566 and ARNTL homologous peptide/HLA-A*02:01 complexes (mixed)
[2] = target: group 3: OR1I1, OR51B6, OR6C1, ATG9A, RP1 and NR2E1 homologous peptide/HLA-A*02:01 complexes (mixed)
[3] = target: group 2: CDC14A, PTP4A1, BRCA2 and RCL1 homologous peptide/HLA-A*02:01 complexes (mixed)

SPR binding level [1]	SPR binding level [2]	SPR binding level [3]	Binder
0.8 RU	0.2 RU	0.4 RU	AS170036 VL1VH1 (scFv) scFv: QSALTQPRSVSGSPGQSVTISCAGTSSDVGSENYVSWYQQHPGKAPKLMIYQVNKRASGVPDRFSGSKSGNTASLTISGLQAEDEADYYCASYRSSDHNIVFGGGTKLTVLGGGGSGGGGSGGGGSEVQLVESGGGLVQPGGSLRLSCAASGFTFSSYAMSWVRQAPGKGLEWVSTINSGTGSPYYADSVKGRFTISRDNSKNTLYLQMNSLRAEDTAVYYCAKNFFDGSWFLGPPAMDYWGQGTLVTVSSHHHHHH
6.3 RU	4.4 RU	39.3 RU	42-AS170036 VL1VH1-56Y98F108S (scFv) scFv: QSALTQPRSVSGSPGQSVTISCAGTSSDVGSENYVSWYQQHPGKAPKLMIYQVNKRASGVPDRFSGSKSGNTASLTISGLQAEDEADYYCASYRSSDFNIVFGGGTKLTVLGGGGSGGGGSGGGGSEVQLVESGGGLVQPGGSLRLSCAASGFTFSSYAMSWVRQAPGKGLEWVSTINSGTYSPYYADSVKGRFTISRDNSKNTLYLQMNSLRAEDTAVYYCAKNFFDGSWFLSPPAMDYWGQGTLVTVSSHHHHHH
9 RU	6 RU	64.7 RU	45-AS170036 VL1VH1-56Y98I108S (scFv) scFv: QSALTQPRSVSGSPGQSVTISCAGTSSDVGSENYVSWYQQHPGKAPKLMIYQVNKRASGVPDRFSGSKSGNTASLTISGLQAEDEADYYCASYRSSDINIVFGGGTKLTVLGGGGSGGGGSGGGGSEVQLVESGGGLVQPGGSLRLSCAASGFTFSSYAMSWVRQAPGKGLEWVSTINSGTYSPYYADSVKGRFTISRDNSKNTLYLQMNSLRAEDTAVYYCAKNFFDGSWFLSPPAMDYWGQGTLVTVSSHHHHHH
10.2 RU	3.6 RU	11.2 RU	34-AS170036 VL1VH1-98I108A (scFv) scFv: QSALTQPRSVSGSPGQSVTISCAGTSSDVGSENYVSWYQQHPGKAPKLMIYQVNKRASGVPDRFSGSKSGNTASLTISGLQAEDEADYYCASYRSSDINIVFGGGTKLTVLGGGGSGGGGSGGGGSEVQLVESGGGLVQPGGSLRLSCAASGFTFSSYAMSWVRQAPGKGLEWVSTINSGTGSPYYADSVKGRFTISRDNSKNTLYLQMNSLRAEDTAVYYCAKNFFDGSWFLAPPAMDYWGQGTLVTVSSHHHHHH
6.1 RU	1.3 RU	3.3 RU	27-AS170036 VL1VH1-57K108S (scFv) scFv: QSALTQPRSVSGSPGQSVTISCAGTSSDVGSENYVSWYQQHPGKAPKLMIYQVNKRASGVPDRFSGSKSGNTASLTISGLQAEDEADYYCASYRSSDHNIVFGGGTKLTVLGGGGSGGGGSGGGGSEVQLVESGGGLVQPGGSLRLSCAASGFTFSSYAMSWVRQAPGKGLEWVSTINSGTGKPYYADSVKGRFTISRDNSKNTLYLQMNSLRAEDTAVYYCAKNFFDGSWFLSPPAMDYWGQGTLVTVSSHHHHHH
9.3 RU	6.1 RU	56.6 RU	48-AS170036 VL1VH1-56Y98Q108S (scFv) scFv: QSALTQPRSVSGSPGQSVTISCAGTSSDVGSENYVSWYQQHPGKAPKLMIYQVNKRASGVPDRFSGSKSGNTASLTISGLQAEDEADYYCASYRSSDQNIVFGGGTKLTVLGGGGSGGGGSGGGGSEVQLVESGGGLVQPGGSLRLSCAASGFTFSSYAMSWVRQAPGKGLEWVSTINSGTYSPYYADSVKGRFTISRDNSKNTLYLQMNSLRAEDTAVYYCAKNFFDGSWFLSPPAMDYWGQGTLVTVSSHHHHHH
4.4 RU	2 RU	7 RU	05-AS170036 VL1VH1-56N98I (scFv) scFv: QSALTQPRSVSGSPGQSVTISCAGTSSDVGSENYVSWYQQHPGKAPKLMIYQVNKRASGVPDRFSGSKSGNTASLTISGLQAEDEADYYCASYRSSDINIVFGGGTKLTVLGGGGSGGGGSGGGGSEVQLVESGGGLVQPGGSLRLSCAASGFTFSSYAMSWVRQAPGKGLEWVSTINSGTNSPYYADSVKGRFTISRDNSKNTLYLQMNSLRAEDTAVYYCAKNFFDGSWFLGPPAMDYWGQGTLVTVSSHHHHHH
5.1 RU	1.2 RU	2.8 RU	15-AS170036 VL1VH1-57M98Q (scFv) scFv: QSALTQPRSVSGSPGQSVTISCAGTSSDVGSENYVSWYQQHPGKAPKLMIYQVNKRASGVPDRFSGSKSGNTASLTISGLQAEDEADYYCASYRSSDQNIVFGGGTKLTVLGGGGSGGGGSGGGGSEVQLVESGGGLVQPGGSLRLSCAASGFTFSSYAMSWVRQAPGKGLEWVSTINSGTGMPYYADSVKGRFTISRDNSKNTLYLQMNSLRAEDTAVYYCAKNFFDGSWFLGPPAMDYWGQGTLVTVSSHHHHHH
25.7 RU	17.3 RU	148 RU	43-AS170036 VL1VH1-56Y98I108A (scFv) scFv: QSALTQPRSVSGSPGQSVTISCAGTSSDVGSENYVSWYQQHPGKAPKLMIYQVNKRASGVPDRFSGSKSGNTASLTISGLQAEDEADYYCASYRSSDINIVFGGGTKLTVLGGGGSGGGGSGGGGSEVQLVESGGGLVQPGGSLRLSCAASGFTFSSYAMSWVRQAPGKGLEWVSTINSGTYSPYYADSVKGRFTISRDNSKNTLYLQMNSLRAEDTAVYYCAKNFFDGSWFLAPPAMDYWGQGTLVTVSSHHHHHH
4.5 RU	3.2 RU	32.6 RU	16-AS170036 VL1VH1-56Y108A (scFv) scFv: QSALTQPRSVSGSPGQSVTISCAGTSSDVGSENYVSWYQQHPGKAPKLMIYQVNKRASGVPDRFSGSKSGNTASLTISGLQAEDEADYYCASYRSSDHNIVFGGGTKLTVLGGGGSGGGGSGGGGSEVQLVESGGGLVQPGGSLRLSCAASGFTFSSYAMSWVRQAPGKGLEWVSTINSGTYSPYYADSVKGRFTISRDNSKNTLYLQMNSLRAEDTAVYYCAKNFFDGSWFLAPPAMDYWGQGTLVTVSSHHHHHH
4 RU	2.4 RU	27.2 RU	03-AS170036 VL1VH1-56Y98Q (scFv) scFv: QSALTQPRSVSGSPGQSVTISCAGTSSDVGSENYVSWYQQHPGKAPKLMIYQVNKRASGVPDRFSGSKSGNTASLTISGLQAEDEADYYCASYRSSDQNIVFGGGTKLTVLGGGGSGGGGSGGGGSEVQLVESGGGLVQPGGSLRLSCAASGFTFSSYAMSWVRQAPGKGLEWVSTINSGTYSPYYADSVKGRFTISRDNSKNTLYLQMNSLRAEDTAVYYCAKNFFDGSWFLGPPAMDYWGQGTLVTVSSHHHHHH
15.3 RU	6.5 RU	21.1 RU	49-AS170036 VL1VH1-56N98F108A (scFv) scFv: QSALTQPRSVSGSPGQSVTISCAGTSSDVGSENYVSWYQQHPGKAPKLMIYQVNKRASGVPDRFSGSKSGNTASLTISGLQAEDEADYYCASYRSSDFNIVFGGGTKLTVLGGGGSGGGGSGGGGSEVQLVESGGGLVQPGGSLRLSCAASGFTFSSYAMSWVRQAPGKGLEWVSTINSGTNSPYYADSVKGRFTISRDNSKNTLYLQMNSLRAEDTAVYYCAKNFFDGSWFLAPPAMDYWGQGTLVTVSSHHHHHH
10.9 RU	2 RU	6.3 RU	25-AS170036 VL1VH1-57K108A (scFv) scFv: QSALTQPRSVSGSPGQSVTISCAGTSSDVGSENYVSWYQQHPGKAPKLMIYQVNKRASGVPDRFSGSKSGNTASLTISGLQAEDEADYYCASYRSSDHNIVFGGGTKLTVLGGGGSGGGGSGGGGSEVQLVESGGGLVQPGGSLRLSCAASGFTFSSYAMSWVRQAPGKGLEWVSTINSGTGKPYYADSVKGRFTISRDNSKNTLYLQMNSLRAEDTAVYYCAKNFFDGSWFLAPPAMDYWGQGTLVTVSSHHHHHH
13.8 RU	9.5 RU	79.2 RU	40-AS170036 VL1VH1-56Y98F108A (scFv) scFv: QSALTQPRSVSGSPGQSVTISCAGTSSDVGSENYVSWYQQHPGKAPKLMIYQVNKRASGVPDRFSGSKSGNTASLTISGLQAEDEADYYCASYRSSDFNIVFGGGTKLTVLGGGGSGGGGSGGGGSEVQLVESGGGLVQPGGSLRLSCAASGFTFSSYAMSWVRQAPGKGLEWVSTINSGTYSPYYADSVKGRFTISRDNSKNTLYLQMNSLRAEDTAVYYCAKNFFDGSWFLAPPAMDYWGQGTLVTVSSHHHHHH
5 RU	2.6 RU	7.5 RU	19-AS170036 VL1VH1-56N108A (scFv) scFv: QSALTQPRSVSGSPGQSVTISCAGTSSDVGSENYVSWYQQHPGKAPKLMIYQVNKRASGVPDRFSGSKSGNTASLTISGLQAEDEADYYCASYRSSDHNIVFGGGTKLTVLGGGGSGGGGSGGGGSEVQLVESGGGLVQPGGSLRLSCAASGFTFSSYAMSWVRQAPGKGLEWVSTINSGTNSPYYADSVKGRFTISRDNSKNTLYLQMNSLRAEDTAVYYCAKNFFDGSWFLAPPAMDYWGQGTLVTVSSHHHHHH
26.6 RU	5.7 RU	10 RU	22-AS170036 VL1VH1-57H108A (scFv) scFv: QSALTQPRSVSGSPGQSVTISCAGTSSDVGSENYVSWYQQHPGKAPKLMIYQVNKRASGVPDRFSGSKSGNTASLTISGLQAEDEADYYCASYRSSDHNIVFGGGTKLTVLGGGGSGGGGSGGGGSEVQLVESGGGLVQPGGSLRLSCAASGFTFSSYAMSWVRQAPGKGLEWVSTINSGTGHPYYADSVKGRFTISRDNSKNTLYLQMNSLRAEDTAVYYCAKNFFDGSWFLAPPAMDYWGQGTLVTVSSHHHHHH
6.8 RU	1 RU	4 RU	10-AS170036 VL1VH1-57K98F (scFv) scFv: QSALTQPRSVSGSPGQSVTISCAGTSSDVGSENYVSWYQQHPGKAPKLMIYQVNKRASGVPDRFSGSKSGNTASLTISGLQAEDEADYYCASYRSSDFNIVFGGGTKLTVLGGGGSGGGGSGGGGSEVQLVESGGGLVQPGGSLRLSCAASGFTFSSYAMSWVRQAPGKGLEWVSTINSGTGKPYYADSVKGRFTISRDNSKNTLYLQMNSLRAEDTAVYYCAKNFFDGSWFLGPPAMDYWGQGTLVTVSSHHHHHH

From US20240279318A1
